Target: MT1-MMP cytoplasmic tail peptide (MMP-CTP) (Homo sapiens, Fe(II)-bound)
Assay: ITC

Kd: ~10 µM
B1: acireductone dioxygenase (Fe-HsARD) (protein)
chain: MVQAWYMDDAPGDPRQPHRPDPGRPVGLEQLRRLGVLYWKLDADKYENDPELEKIRRERNYSWMDIITICKDKLPNYEEKIKMFYEEHLHLDDEIRYILDGSGYFDVRDKEDQWIRIFMEKGDMVTLPAGIYHRFTVDEKNYTKAMRLFVGEPVWTAYNRPADHFEARGQYVKFLAQTA

Source: PMC7768908 (2020)
